To fix the notation:
B1: recombinant tetranectin derivative TN23 (other)
chain: VVNTKMFEELKSRLDTLAQEVALLKEQQALQTVCLKGTKVHMKCFLAFTQTKTFHEASEDCISRGGTLSTPQTGSENDALYEYLRQSVGNEAEIWLGLNDMAAEGTWVDMTGARIAYKNWETEITAQPDGGKTENCAVLSGAANGKWFDKRCRDQLPYICQFGIV
notes: It is a trimer by gel filtration but appeared monomeric after DMSI cross-linking
B2: fusion protein H6FXtripb-scFv(CEA6) (scFv)
chain: MGSHHHHHHGSIQGRSPGTEPPTQKPKKIVNAKKDVVNTKMFEELKSRLDTLAQEVALLKEQQALQTGSQVQLQQSGAEVKKPGSSVKVSCKASGGTFSNSPINWLRQAPGQGLEWMGSIIPSFGTANYAQKFQGRLTITADESTSTAYMELSSLRSEDTAVYYCAGRSHNYELYYYYMDVWGQGTMVTVSSGGGGSGGGGSGGGGSDIQMTQSPSTLSASIGDRVTITCRASEGIYHWLAWYQQKPGKAPKLLIYKASSLASGAPSRFSGSGSGTDFTLTISSLQPDDFATYYCQQYSNYPLTFGGGTKLEIKRAAAEQKLISEEDLNGA
notes: About 38 kDa per monomer; Only its self-association was tested
B3: recombinant full length tetranectin (TN123) (other)
chain: GEPPTQKPKKIVNAKKDVVNTKMFEELKSRLDTLAQEVALLKEQQALQTVCLKGTKVHMKCFLAFTQTKTFHEASEDCISRGGTLSTPQTGSENDALYEYLRQSVGNEAEIWLGLNDMAAEGTWVDMTGARIAYKNWETEITAQPDGGKTENCAVLSGAANGKWFDKRCRDQLPYICQFGIV
notes: Found as a trimer in solution; also called rTN123
B4: tetranectin fusion protein CIIH6FXTN123 (other)
chain: MVRANKRNEALRIESALLNKIAMLGTEKTAEGGSHHHHHHGSIEGRGEPPTQKPKKIVNAKKDVVNTKMFEELKSRLDTLAQEVALLKEQQALQTVCLKGTKVHMKCFLAFTQTKTFHEASEDCISRGGTLSTPQTGSENDALYEYLRQSVGNEAEIWLGLNDMAAEGTWVDMTGARIAYKNWETEITAQPDGGKTENCAVLSGAANGKWFDKRCRDQLPYICQFGIV
notes: Uncleaved fusion protein; Forms homo-trimers, and forms hetero-trimers with TN123; also called H6CIIFXTN123
B5: fusion protein H6FXTN12 (other)
chain: MGSHHHHHHGSIEGRGEPPTQKPKKIVNAKKDVVNTKMFEELKSRLDTLAQEVALLKEQQALQTV
notes: Uncleaved fusion protein; Formed homo-trimers upon cross-linking; also called H6-rTN12
B6: recombinant tetranectin derivative TN3 (other)
chain: ALQTVCLKGTKVHMKCFLAFTQTKTFHEASEDCISRGGTLSTPQTGSENDALYEYLRQSVGNEAEIWLGLNDMAAEGTWVDMTGARIAYKNWETEITAQPDGGKTENCAVLSGAANGKWFDKRCRDQLPYICQFGIV
notes: Appeared monomeric

Data set [1] deals with the molecule itself. Description: analytical gel filtration on Superose 12; self-association. How it is done:
(§1) FIG. 9: Gel filtration analysis of TN123, TN23, and TN3 Analytical gel filtration of the recombinant tetranectin derivatives TN123, TN23, and TN3 were performed on a Superose 12 HR 10/30 column (Pharmacia, Sweden) with a total volume of 25 ml in 100 mM NaCl and 50 mM Tris-HCl pH 8 and a flow rate of 0.2 ml/min. Vertical bars at peak maxima identify elution profiles for each of the three proteins.
(§2) Analytical gelfiltration of the recombinant tetranectin derivatives TN123, TN3, and TN23 (FIG. 9) were performed on a Superose 12 HR 10/30 column (Pharmacia, Sweden) with a total volume of 25 ml in 100 mM NaCl and 50 mM Tris-HCl pH 8 and a flow rate of 0.2 ml/min. The Kₐᵥ value is defined by, Kₐᵥ=(Ve−Vo)/(Vc−Vo).
In general terms: Size exclusion chromatography separates by hydrodynamic size, large species first.

Data set [2] deals with the molecule itself. Description: DMSI cross-linking with rising DMSI at room temperature, SDS-PAGE; self-association. The procedure:
After completion of the refolding procedure each column was washed with 300 ml buffer containing 0.5 M NaCl and 50 mM Tris-HCl pH 8 to wash away glutathione. The refolded fraction of each protein was then eluted from the NTA-agarose matrix by addition of 20 mM EDTA to the elution buffer. After addition of solid urea to achieve a final concentration of about 8 M to each protein sample and dilution or dialysis to reduce NaCl concentrations to below 5 mM, final purification of each correctly folded fusion protein product was then accomplished by ion exchange chromatography (S-Sepharose, Pharmacia, 1,6 (i.d.) by 90 centimeter column in a buffer containing 8 M urea, 5 mM Tris-HCl (from 1 M stock solution at pH 8) and 25 mM sodium acetate (from 1 M stock solution at pH 5), eluted at 2 ml/min). After dialysis against aqueous buffers (e.g. phosphate buffered saline) each pure and correctly refolded fusion protein was recovered in yields of 2-6 mg per litre of culture grown. […] Reactions were quenched by addition of 5 μl 3M Tris-HCl pH 9 and the samples analyzed by SDS-PAGE under reducing conditions (FIG. 21). Like tetranectin, the H6FXtripb-scFV-(CEA6) fusion protein, of approximately 38 kDa, is hereby shown to be a trimer in solution.

Data set [3] deals with the molecule itself. Briefly: DMSI cross-linking and SDS-PAGE; self-association. How it is done:
(§3) The recombinant tetranectin derivatives TN123, TN3, and TN23, together with the fusion proteins CIIH6FXTN123 and H6FXTN12 or mixtures of these derivatives at 1 mg/ml concentrations in cross-linking buffer (0.1 M Sodium borate, pH 9.1) were incubated with dimethylsuberimidate (DMSI, Sigma). 10 μl aliquots of protein solution were incubated with 1 μl aliquots of DMSI stock solution (20 mg/ml in cross-linking buffer) for 30 minutes at 25° C. before addition of 2 μl quenching buffer (3 M Tris-HCl, pH 9). Subunit exchange between preformed homo-oligomers was induced by subjecting protein mixtures to heat shock treatment. Five μl aliquots of each protein solution (1 mg/ml stocks) were mixed at 0° C. in standard polypropylene microcentrifuge tubes, transferred to a water bath at 70° C. for the time spans indicated, and then further incubated for 15 minutes at 25° C. before reaction with DMSI.
Subunit exchange could be induced by incubating the protein mixture at 70° C. for 15 seconds or longer before cooling to room temperature and addition of DMSI. […] It should be noted, that molecular weight markers have only been included on the SDS-PAGE gels for crude calibration and orientation of the gels.

Data set [4] has as its target B3. Description: DMSI cross-linking and SDS-PAGE after subunit exchange at 70 C for 15 s or longer; no exchange after 16 h at room temperature. How it is done:
FIG. 10: Cross-linking analysis of TN123 and CIIH6FXTN123. Samples of TN123, CIIH6FXTN123 and mixtures of both were incubated with DMSI and analyzed by SDS-PAGE (12% gel). Before addition of DMSI, protein mixtures were subjected to subunit exchange by incubation at 70° C. for varying length of time. Protein marker of 94, 68, 43 and 30 kDa, top to bottom (lane M). CIIH6FXTN123 fusion protein (lane 1). TN123 (lane 2). DMSI treated CIIH6FXTN123 (lanes 3 and 6). DMSI-treated TN123 (lane 4). Identical samples of DMSI treated mixtures of CIIH6FXTN123 and TN123 without heat exposure (lanes 5 and 7) and heat treated for 2.5 sec, 15 sec, 2.5 min. and 10 min., respectively, before treatment with DMSI (lanes 8-11).
as §3, with “Five μl aliquots of each protein solution (1 mg/ml stocks) were mixed at 0° C. in standard polypropylene microcentrifuge tubes, transferred to a water bath at 70° C. for the time spans indicated, and then further incubated for 15 minutes at 25° C. before reaction with DMSI.” left out

Data set [5] concerns the target B3. Briefly: DMSI cross-linking and SDS-PAGE after heat treatment at 70 C. The procedure:
as §3

Data set [6] addresses B3. Description: DMSI cross-linking of the mixture with and without heat treatment at 70 C, SDS-PAGE. How it is done:
as §3

Data set [7] concerns the molecule itself. Briefly: analytical gel filtration on Superose 12. The procedure: as §1, §2

As to B1, the binding result in data set [1] is given as “binds”.
B2: in data set [2], the binding result was “binds”.
As to B3, the binding result in data set [1] is given as “binds”.
As for B4, the binding result in data set [3] and in data set [4] was “binds” each time.
As for B5, the binding result in data set [3] and in data set [5] was “binds” throughout.
As to B6, the binding result in data set [6] and in data set [7] was “no binding” each time.
